The record followed here is PMC7793593 (Science Advances, 2021).

First the molecules themselves.
B1: HAdV-F41 hexon protein (natural protein, human adenovirus F41 (strain Tak))
chain: MATPSMMPQWSYMHIAGQDASEYLSPGLVQFARATDTYFSLGNKFRNPTVAPTHDVTTDRSQRLTLRFVPVDREDTAYSYKVRFTLAVGDNRVLDMASTYFDIRGVLDRGPSFKPYSGTAYNSLAPKTAPNPCEWKDNNKIKVRGQAPFIGTNINKDNGIQIGTDTTNQPIYADKTYQPEPQVGQTQWNSEVGAAQKVAGRVLKDTTPMLPCYGSYAKPTNEKGGQASLITNGTDQTLTSDVNLQFFALPSTPNEPKAVLYAENVSIEAPDTHLVYKPDVAQGTISSADLLTQQAAPNRPNYIGFRDNFIGLMYYNSTGNMGVLAGQASQLNAVVDLQDRNTELSYQLMLDALGDRSRYFSMWNQAVDSYDPDVRIIENHGVEDELPNYCFPLGGSAATDTYSGIKANGQTWTADDNYADRGAEIESGNIFAMEINLAANLWRSFLYSNVALYLPDSYKITPDNITLPENKNTYAYMNGRVAVPSALDTYVNIGARWSPDPMDNVNPFNHHRNAGLRYRSMLLGNGRYVPFHIQVPQKFFAIKNLLLLPGSYTYEWNFRKDVNMILQSSLGNDLRVDGASVRFDSINLYANFFPMAHNTASTLEAMLRNDTNDQSFNDYLCAANMLYPIPSNATSVPISIPSRNWAAFRGWSFTRLKTKETPSLGSGFDPYFTYSGSVPYLDGTFYLNHTFKKVSIMFDSSVSWPGNDRLLTPNEFEIKRTVDGEGYNVAQCNMTKDWFLIQMLSHYNIGYQGFYVPESYKDRMYSFFRNFQPMSRQVVNTTTYKEYQNVTLPFQHNNSGFVGYMGPTMREGQAYPANYPYPLIGQTAVPSLTQKKFLCDRTMWRIPFSSNFMSMGALTDLGQNMLYANSAHALDMTFEVDPMDEPTLLYVLFEVFDVVRIHQPHRGVIEAVYLRTPFSAGNATT

What all share (assay): cryo-EM structure
For series [1], the target named is HAdV-F41 penton base protein, virion-bound (human adenovirus F41 (strain Tak)).
Series [2] deals with the molecule itself.
Series [3] concerns the target B1.

In general, stoichiometry N refers to the number of molecules, sites or subunits per partner or assembly. Turning to “HAdV-F41 penton base protein, virion-bound (natural protein)”, the stoichiometry N in series [1] is 5.

For B1, the “stoichiometry N” value in series [2] is 3.

B2: HAdV-F41 capsid protein IX (natural protein, human adenovirus F41 (strain Tak), UniProt P32539 1-133, looked up)
chain: MSGSMEGNAVSFKGGVFSPYLTTRLPAWAGVRQNVMGSNVDGRPVAPANSATLTYATVGSSVDTAAAAAASAAASTARGMAADFGLYNQLAASRSLREEDALSVVLTRMEELSQQLQDLFAKVALLNPPANAS
With B2, the “stoichiometry N” value in series [2] came out at 3. For the same molecule, the binding result in series [3] is “binds”.
